Measurements taken from patent publication US12312417B2, “Binding proteins 1” (Nucleus Therapeutics Pty. Ltd., priority 2017, dated 2025).

Key:
Format in all cases: cell-based
[1] = system: HDR-proficient DLD1 cells; assay: Cell death in HDR-proficient cells, di-scFv with PARP inhibitor; settings: 5 nM olaparib, 10 μM di-scFv, or both
Protocol: Homology-directed repair (HDR) deficient BRCA2-DLD1 cells and PTEN-U251 cells were treated with control, 5 nM olaparib, 10 μM di-scFv, or 10 μM di-scFv+5 nM olaparib. Surviving fraction was determined by colony formation assay.
It was then determined whether the combination of di-scFv and olaparib is simply universally cytotoxic, regardless of DNA repair status. To evaluate this possibility, HDR-proficient DLD1 cells were treated with the above regimen to confirm selectivity of combination therapy to HDR-deficient malignant cells.

[2] = system: PTEN-deficient U251 human glioma cells; assay: Phospho-53BP1 foci accumulation (DNA damage); settings: PTEN-deficient U251; twenty-four hours; vs control media
Protocol: A matched pair of PTEN-proficient and deficient U251 human glioma cells were treated with control media or media containing Variant 10, 11, 13, 15, or 16 for twenty-four hours. Cells were then washed, fixed, blocked, and then probed with an anti-phospho-53BP1 antibody overnight. Cells were then washed and incubated with an AlexaFluor555-conjugated secondary antibody. Finally, cells were washed, counterstained with DAPI, and visualized under a fluorescence microscope. Images were saved and evaluated by CellProfiler to determine mean number of phospho-53BP1 foci per cell.
A matched pair of BRCA2-proficient and deficient DLD1 colon cancer cells and PTEN-proficient and deficient U251 human glioma cells were treated with control media or media containing 10 μM di-scFv variant 13 (SEQ ID NO: 41), 5 nM olaparib, or combination treatment.

[3] = system: PTEN-deficient U87 human glioma cells; assay: Cell viability by Trypan blue exclusion assay; settings: 7 days after treatment; relative to control treated cells
Protocol: Cell viability of PTEN-deficient U87 human glioma cells was also assessed following treatment with control media or media containing Variants 10, 13, 15, or 16. Cell viability was determined 7 days after treatment using Trypan blue exclusion assay and by direct visualization of cell morphology by light microscopy.

[4] = system: BRCA2-deficient DLD1 colon cancer cells; assay: Cell viability by Trypan blue exclusion assay; settings: 7 days later
Protocol: (§1) Next, a matched pair of BRCA2-proficient and deficient DLD1 colon cancer cells was treated with control media or media containing Variants 10, 13, 15, or 16. Cell viability was determined 7 days later by Trypan blue exclusion assay and by direct visualization of cell morphology by light microscopy. […] Representative light microscope images shown the changes in morphology in the BRCA2-deficient cancer cells treated with the variants are shown in FIG. 10, Panel A. Quantitative analysis of the cell survival by Trypan blue exclusion assay is shown in FIG. 10, Panel B.

[5] = system: BRCA2-proficient DLD1 colon cancer cells; assay: Cell viability by Trypan blue exclusion assay; settings: 7 days later
Protocol: as §1

[6] = system: DLD1 colon cancer cells; assay: Alkaline phosphatase-based survey of nuclear penetration; settings: cells treated for one hour; right shift of histogram peak
Protocol: DLD1 colon cancer cells were treated with control media or each of the indicated variants for one hour. Cells were then washed, fixed, blocked with 1% BSA-TBST, and then probed with protein L for one hour. Cells were then washed and incubated with an anti-protein L primary antibody for one hour. After another round of washing cells were incubated with an alkaline phosphatase-conjugated secondary antibody for one hour. Finally, cells were washed and signal was developed by addition of NBT/BCIP. Dark stain indicates location of the variants.
Raw integrated density values reflecting nuclear alkaline phosphatase staining in the DLD1 cells from the experiment in FIG. 3 were obtained by analysis using ImageJ Boxplots of distributions of values are presented for each variant in FIG. 4.
Histogram plots of cell counts versus nuclear staining intensity (represented as reciprocal intensity in arbitrary units) are shown in FIG. 5.

O=C(c1cc(Cc2n[nH]c(=O)c3ccccc23)ccc1F)N1CCN(C(=O)C2CC2)CC1 [olaparib, reference compound]
cell death [1]: remain resistant

B1: Variant 16: cell penetrating anti-DNA humanized di-scFv, SEQ ID NO: 44 (protein)
scFv: DIQMTQSPSSLSASVGDRVTITCRASKTVSTSSYSYMHWYQQKPGKAPKLLIKYASYLESGVPSRFSGSGSGTDFTLTISSLQPEDFATYYCQHSREFPWTFGQGTKVEIKRADAAPGGGGSGGGGSGGGGSEVQLVESGGGLVQPGGSLRLSCAASGFTFSNYGMHWVRQAPGKGLEWVSYISSGSSTIYYADSVKGRFTISRDNAKNSLYLQMNSLRAEDTAVYYCARRGLLLDYWGQGTTVTVSSASTKGPSVFPLAPLESSGSDIQMTQSPSSLSASVGDRVTITCRASKTVSTSSYSYMHWYQQKPGKAPKLLIKYASYLESGVPSRFSGSGSGTDFTLTISSLQPEDFATYYCQHSREFPWTFGQGTKVEIKRADAAPGGGGSGGGGSGGGGSEVQLVESGGGLVQPGGSLRLSCAASGFTFSNYGMHWVRQAPGKGLEWVSYISSGSSTIYYADSVKGRFTISRDNAKNSLYLQMNSLRAEDTAVYYCARRGLLLDYWGQGTTVTVSS
modifications: Variant 16
mean number of phospho-53BP1 foci per cell [2]: increased the number of foci
cell viability [3]: reductions in cell viability
cell viability / toxicity [4]: killed by the variants
cell viability / toxicity [5]: not toxic

B2: Variant 12: cell penetrating anti-DNA humanized di-scFv, SEQ ID NO: 40 (protein)
scFv: DIQMTQSPSSLSASVGDRVTITCRASKSVSTSSYSYMHWYQQKPGKAPKLLIKYASYLESGVPSRFSGSGSGTDFTLTISSLQPEDFATYYCQHSREFPWTFGQGTKVEIKRADAAPGGGGSGGGGSGGGGSEVQLVESGGGDVKPGGSLRLSCAASGFTFSNYGMHWVRQAPEKGLEWVSYISSSSSTIYYADSVKGRFTISRDNSKNTLYLQMNSLRAEDTAVYYCARRGLLLDYWGQGTTVTVSSASTKGPSVFPLAPLESSGSDIQMTQSPSSLSASVGDRVTITCRASKSVSTSSYSYMHWYQQKPGKAPKLLIKYASYLESGVPSRFSGSGSGTDFTLTISSLQPEDFATYYCQHSREFPWTFGQGTKVEIKRADAAPGGGGSGGGGSGGGGSEVQLVESGGGDVKPGGSLRLSCAASGFTFSNYGMHWVRQAPEKGLEWVSYISSSSSTIYYADSVKGRFTISRDNSKNTLYLQMNSLRAEDTAVYYCARRGLLLDYWGQGTTVTVSS
modifications: Variant 12
nuclear penetration relative to the yeast prototype (histogram of cell counts versus nuclear staining intensity) [6]: Most of the variants, other than variants 12 and 14, showed improved nuclear penetration

B3: Variant 10: cell penetrating anti-DNA humanized di-scFv, SEQ ID NO: 38 (protein)
scFv: DIQMTQSPSSLSASVGDRVTITCRASKSVSTSSYSYMHWYQQKPGKAPKLLIKYASYLESGVPSRFSGSGSGTDFTLTISSLQPEDFATYYCQHSREFPWTFGQGTKVEIKRADAAPGGGGSGGGGSGGGGSEVQLVESGGGLVQPGGSLRLSCAASGFTFSNYGMHWVRQAPGKGLEWVSYISSSSSTIYYADSVKGRFTISRDNAKNSLYLQMNSLRAEDTAVYYCARRGLLLDYWGQGTTVTVSSASTKGPSVFPLAPLESSGSDIQMTQSPSSLSASVGDRVTITCRASKSVSTSSYSYMHWYQQKPGKAPKLLIKYASYLESGVPSRFSGSGSGTDFTLTISSLQPEDFATYYCQHSREFPWTFGQGTKVEIKRADAAPGGGGSGGGGSGGGGSEVQLVESGGGLVQPGGSLRLSCAASGFTFSNYGMHWVRQAPGKGLEWVSYISSSSSTIYYADSVKGRFTISRDNAKNSLYLQMNSLRAEDTAVYYCARRGLLLDYWGQGTTVTVSS
modifications: Variant 10
mean number of phospho-53BP1 foci per cell [2]: increased the number of foci
cell viability [3]: reductions in cell viability
cell viability / toxicity [4]: killed by the variants
cell viability / toxicity [5]: not toxic

B4: Variant 11: cell penetrating anti-DNA humanized di-scFv, SEQ ID NO: 39 (protein)
scFv: DIQMTQSPSSLSASVGDRVTITCRASKSVSTSSYSYMHWYQQKPGKAPKLLIKYASYLESGVPSRFSGSGSGTDFTLTISSLQPEDFATYYCQHSREFPWTFGQGTKVEIKRADAAPGGGGSGGGGSGGGGSEVQLVESGGGVVQPGGSLRLSCAASGFTFSNYGMHWVRQAPEKGLEWVSYISSSSSTIYYADSVKGRFTISRDNSKNTLYLQMNSLRAEDTAVYYCARRGLLLDYWGQGTTVTVSSASTKGPSVFPLAPLESSGSDIQMTQSPSSLSASVGDRVTITCRASKSVSTSSYSYMHWYQQKPGKAPKLLIKYASYLESGVPSRFSGSGSGTDFTLTISSLQPEDFATYYCQHSREFPWTFGQGTKVEIKRADAAPGGGGSGGGGSGGGGSEVQLVESGGGVVQPGGSLRLSCAASGFTFSNYGMHWVRQAPEKGLEWVSYISSSSSTIYYADSVKGRFTISRDNSKNTLYLQMNSLRAEDTAVYYCARRGLLLDYWGQGTTVTVSS
modifications: Variant 11
mean number of phospho-53BP1 foci per cell [2]: increased the number of foci

B5: Variant 14: cell penetrating anti-DNA humanized di-scFv, SEQ ID NO: 42 (protein)
scFv: DIQMTQSPSSLSASLGDRATITCRASKTVSTSSYSYMHWYQQKPGQPPKLLIKYASYLESGVPSRFSGSGSGTDFTLTISSLQPEDAATYYCQHSREFPWTFGGGTKVEIKRADAAPGGGGSGGGGSGGGGSEVQLVESGGGVVQPGGSLRLSCAASGFTFSNYGMHWVRQAPEKGLEWVSYISSGSSTIYYADSVKGRFTISRDNSKNTLYLQMNSLRAEDTAVYYCARRGLLLDYWGQGTTVTVSSASTKGPSVFPLAPLESSGSDIQMTQSPSSLSASLGDRATITCRASKTVSTSSYSYMHWYQQKPGQPPKLLIKYASYLESGVPSRFSGSGSGTDFTLTISSLQPEDAATYYCQHSREFPWTFGGGTKVEIKRADAAPGGGGSGGGGSGGGGSEVQLVESGGGVVQPGGSLRLSCAASGFTFSNYGMHWVRQAPEKGLEWVSYISSGSSTIYYADSVKGRFTISRDNSKNTLYLQMNSLRAEDTAVYYCARRGLLLDYWGQGTTVTVSS
modifications: Variant 14
nuclear penetration relative to the yeast prototype (histogram of cell counts versus nuclear staining intensity) [6]: Most of the variants, other than variants 12 and 14, showed improved nuclear penetration

B6: Variant 15: cell penetrating anti-DNA humanized di-scFv, SEQ ID NO: 43 (protein)
scFv: DIQMTQSPSSLSASLGDRATITCRASKTVSTSSYSYMHWYQQKPGQPPKLLIKYASYLESGVPSRFSGSGSGTDFTLTISSLQPEDAATYYCQHSREFPWTFGGGTKVEIKRADAAPGGGGSGGGGSGGGGSEVQLVESGGGDVKPGGSLRLSCAASGFTFSNYGMHWVRQAPEKGLEWVSYISSGSSTIYYADSVKGRFTISRDNSKNTLYLQMNSLRAEDTAVYYCARRGLLLDYWGQGTTVTVSSASTKGPSVFPLAPLESSGSDIQMTQSPSSLSASLGDRATITCRASKTVSTSSYSYMHWYQQKPGQPPKLLIKYASYLESGVPSRFSGSGSGTDFTLTISSLQPEDAATYYCQHSREFPWTFGGGTKVEIKRADAAPGGGGSGGGGSGGGGSEVQLVESGGGDVKPGGSLRLSCAASGFTFSNYGMHWVRQAPEKGLEWVSYISSGSSTIYYADSVKGRFTISRDNSKNTLYLQMNSLRAEDTAVYYCARRGLLLDYWGQGTTVTVSS
modifications: Variant 15
nuclear penetration relative to the yeast prototype (histogram of cell counts versus nuclear staining intensity) [6]: notable right shift and narrowing of distributions
mean number of phospho-53BP1 foci per cell [2]: increased the number of foci
cell viability [3]: reductions in cell viability
cell viability / toxicity [4]: killed by the variants
cell viability / toxicity [5]: not toxic
